According to publication PMC3744643:

Key:
Conditions in all cases: 10 mM Tris-HCl pH 7.5, 50 mM NaCl, 1 mM MgCl2, 0.5 mM EDTA, 0.5 mM DTT, 0.05 mg/ml poly(dI-dC), room temperature, 30 min; footprinting: same buffer, then …
[1] = molecular target: T1, His-OpaR (Vibrio parahaemolyticus RIMD 2210633) (UniProt Q79YV4); assay: DNase I footprinting
T1 sequence: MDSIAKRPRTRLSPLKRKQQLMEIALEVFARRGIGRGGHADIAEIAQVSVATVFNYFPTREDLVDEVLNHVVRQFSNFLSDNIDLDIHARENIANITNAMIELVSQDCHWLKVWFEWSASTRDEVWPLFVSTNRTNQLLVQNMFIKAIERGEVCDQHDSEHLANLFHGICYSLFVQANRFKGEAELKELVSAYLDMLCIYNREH

[2] = tested on: T2, His-AphA (Vibrio parahaemolyticus RIMD 2210633), ORF:4cf93ac0; assay: DNase I footprinting
T2 sequence: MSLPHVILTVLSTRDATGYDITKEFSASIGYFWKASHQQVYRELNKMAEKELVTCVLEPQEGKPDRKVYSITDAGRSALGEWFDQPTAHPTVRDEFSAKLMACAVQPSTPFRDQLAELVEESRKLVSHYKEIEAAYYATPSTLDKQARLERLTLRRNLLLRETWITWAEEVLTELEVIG

[3] = molecular target: T1, His-OpaR (Vibrio parahaemolyticus RIMD 2210633); assay: EMSA
[4] = tested on: T2, His-AphA (Vibrio parahaemolyticus RIMD 2210633), ORF:4cf93ac0; assay: EMSA

Sequence	binding [1]	binding [2]	binding [3]	binding [4]
GAGTTGCTTCATAATAACTATTATTAGTTATAAATATCGCTTAATTTAAATCTAATTTAAAGATATAAAGGAGCGTATTTAAAATGAAGTTTTTGATACATCAATCATTAATTATCATTATTCAGATAATTTAATTAATACGAAATATGTCAATTAATAATGCTCTAGGAGATTAGCATGCAGTCTAATACGTATCTTAAATACGCAGATATTAAAGGTGAAGCGACAGCGGAAC (double strand) [VPA1027 (hcp2) promoter footprinting probe]	binds	no binding	–	–
AGCGGAGTCTTGTTTATTAACGTTTTTAGCGGGTTCAATTGCATTTTCTCTTTTTTGAGTCTTTACAATTTTTGTTTTATCTCCGCTATCGCTGCTATTTATAGATTTGTCTTTATTTTTTTCTTCCATCACAAGGACTCCATATAAATGATGGGGTTAATATATATATTCCTGCTAAATGAAAAATACTTCGGTTAGATTTTCTCG (double strand) [VPA1043 promoter probe (EMSA and footprinting)]	binds	no binding	binds	no binding
TTGTGGAAACTCGTTATGGTCAATACCAATTTCATGAAAAACCTCGCCAAAGACCTGCTAAATATTTATATATCGATTTTTATAATTAGATTTGAAGCTTTAATTATTAACATTAAGATTAATAGAGTTCTTATAGCTGTTATAAAAACTATTGACGGCATAATGAATCATTTTTTTATCAAAGCAATCATGAATTGTTGAACAATTTTAAATATCCAACCAGGTTCAAATTTTTGACACTCAAACTTTCACCCGTCAA (double strand) [VPA1044 promoter probe (EMSA and footprinting)]	binds	no binding	binds	no binding
